Assay results as given in patent publication US20110217318A1 (MOCHIDA PHARMACEUTICAL, published 2011).

These binders were tested against T1, human GPVI extracellular region-human Fc fusion protein (hGPVI-hFc) (human) (assay: SPR BIACORE 3000 as in Example 5).
T1 construct: Expressed in COS-1, purified on Protein A; also called GPVI-HHH-hFc; hGPVIHHH-hFc
T1 sequence (chain, as listed by the source limits assumed): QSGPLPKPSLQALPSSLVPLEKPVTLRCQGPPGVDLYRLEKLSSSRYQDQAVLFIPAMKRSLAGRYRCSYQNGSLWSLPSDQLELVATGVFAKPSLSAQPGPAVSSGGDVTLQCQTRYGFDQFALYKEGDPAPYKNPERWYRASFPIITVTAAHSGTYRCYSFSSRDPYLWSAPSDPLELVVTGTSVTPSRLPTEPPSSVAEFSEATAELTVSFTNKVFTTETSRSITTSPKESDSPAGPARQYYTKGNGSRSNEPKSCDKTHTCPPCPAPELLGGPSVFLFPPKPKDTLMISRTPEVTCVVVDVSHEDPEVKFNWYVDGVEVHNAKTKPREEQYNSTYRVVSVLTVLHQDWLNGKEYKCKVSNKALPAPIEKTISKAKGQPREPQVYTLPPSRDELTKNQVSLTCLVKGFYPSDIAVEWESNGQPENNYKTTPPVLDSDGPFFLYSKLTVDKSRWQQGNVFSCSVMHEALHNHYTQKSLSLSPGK

KD (Relative value) | Binder
0.00298 relative to F1232-37-2 = 1 | F1257-3-1 (antibody, V domains shown, rat hybridoma monoclonal antibody) VH: QVTLKESGPGMLQPSKTLSLTCSFSGFSLSTSGMVVSWIRQPSGKSLEWLAAIDWDGDKYYNPSLKSRLTVSKDTSNTQVFLKISSVDIADTATYYCARTPYYGYKEAYYFDYWGQGVKVTVSS VL: DIQMTQSPASLSASLEEIVTITCKASRAIDDYLSWYQQKPGKSPQLLIYDATSLADGVPSRFSGSRSGTQYSLKISRPQVDDSGIYYCLQSYSTPWTFGGGTKLDLKR
0.884 relative to F1232-37-2 = 1 | F1246-1-1 (antibody, V domains shown, mouse hybridoma monoclonal antibody) VH: EVQLVESGGDLVKPGGSLKLSCAASGFTFSSYGMSWVRQTPDKRLEWVATISNGGTYTYYPDSVKGRFTISRDNAKNTLYLQMSSLKSDDTAMYYCGRLRDYYAMDYWGQGTSVTVSS VL: DIVLTQSPASLAVSLGQRATISCRASESVDSYGNSFMHWYQQKPGQPPKLLIYRASNLESGIPARFSGSGSRTDFTLTINPVEADDVATYYCQQSNEDPWTFGGGTKLEIKR
0.00821 relative to F1232-37-2 = 1 | F1249-24-1 (antibody, V domains shown, mouse hybridoma monoclonal antibody) VH: QVQLQQSGAELVRPGVSVKISCKGSGYTFTDYAMHWVKQSHAKSLEWIGVISTYYGDTSYNQKFKGKATMTVDKSSSTAYMELARLTSEDSAIYYCARAEDYDPWFAYWGQGTLVTVSA VL: DIVLTQSPASLAVSLGQRATISCRASESVDSYGNSFMHWYQQKPGQPPKLLIYRASNLESGIPARFSGSGSRTDFTLTINPVEADDVATYYCQQSDEDPLTFGAGTKLELKR
0.00205 relative to F1232-37-2 = 1 | F1249-20-1 (antibody, V domains shown, mouse hybridoma monoclonal antibody) VH: QVQLQQSGAELVRPGVSVKISCKGSGYTFTDYAMHWVKQSHAKSLEWIGVISTYYGDTSYNQKFKGKATMTVDKSSSTAYMELARLTSEDSAIYYCARAEDYDPWFAYWGQGTLVTVSA VL: DIVLTQSPASLAVSLGQRATISCRASESVDSYGNSFMYWYQQKPGQPPKLLIYRASNLESGIPARFSGSGSRTDFTLTINPVEADDVATYYCQQSDEDPLTFGAGTKLELKR
1.59 relative to F1232-37-2 = 1 | F1249-3-2 (antibody, V domains shown, mouse hybridoma monoclonal antibody) VH: EVQLVESGGGLVKPGGSLKLSCAASGFTFSSYGMSWVRQTPDKRLEWVATISSGGSYTYYSDSVKGRFTISRDNAKNNLYLQLSSLKSQDTAIYYCARDSGYFDYWGQGTTLTVSS VL: NIVLTQSPASLAVSLGQRATISCRASESVDSYGNSFMHWYQQKPGQPPKLLIYLASNLESGVPARFSGSGSRTDFTLTIDPVEADDAATYYCQQNNEDPRTFGGGTKLEIKR
0.347 relative to F1232-37-2 = 1 | F1249-30-1 (antibody, V domains shown, mouse hybridoma monoclonal antibody) VH: QVQLQQSGAELVRPGVSVKISCKGSGYTFTDYAMHWVKQSHAKSLEWIGVISTYYGDTSYNQKFKGKAAMTVDKSSSTAYMELARLTSDDSAIYYCARAEDYDPWFAYWGQGTLVTVSA VL: DIVLTQSPASLAVSLGQRATISCRASESVDSYGNSFMHWYQQKPGQPPKLLIYRASNLESGIPARFSGSGSRTDFTLTINPVEADDVATYYCQQSDEDPLTFGAGTKLELKR
0.00103 relative to F1232-37-2 = 1 | F1249-18-2 (antibody, V domains shown, mouse hybridoma monoclonal antibody) VH: QVQLQQPGAELVKPGASVKLSCKASGYTFTSYWMHWLKQRPGQGLEWIGMIHPNSDITNYNEKFKNKATLTVDKSSSTAYMQLSSLTSEDSAVYYCARSGDYYAMDYWGQGTSVTVSS VL: SIVMTQTPKFLLVSAGDRVTITCKASQSVSNDVAWYQQKPGQSPKLLIYYASNRYTGVPDRFTGSGYGTDFTFTISTVQAEDLAVYFCQQDYSSPPTFGGGTKLEIKR
0.122 relative to F1232-37-2 = 1 | F1245-6-2 (antibody, V domains shown, mouse hybridoma monoclonal antibody) VH: QVQLQQPGAELVKPGASVKLSCKASGYTFTSYWMHWVKQRPGQGLEWIGMIHPNSGSTNYNEKFKSKATLTVDKSSSTAYMQLSSLTSEDSAVYYCARGGVTPVAYWGQGTLVTVSA VL: SIVMTQTPKFLLVSAGDRVTITCKASQSVSNDVAWYQQKPGQSPKLLIYYASNRYTGVPYRFTGSGYGTDFTFTISTVQAEDLAVYFCQQDYSSPWTFGGGTKLEIKR
0.00427 relative to F1232-37-2 = 1 | F1245-4-1 (antibody, V domains shown, mouse hybridoma monoclonal antibody) VH: QVQLQQPGAELVKPGASVKLSCKASGCTFTSYWMHWVKQRPGQGLEWIGMIHPNSDNTNYNEKFKSKATLTVDKSSSTAYMHLSSLTSEDSAVYYCATHYYDYVDYWGQGTTLTVSS VL: NIVMTQTPKFLLVSAGDRVTITCKASQSVSNDVAWYQQKPGQSPKLLIYYASNRYTGVPDRFTGSGYGTDFTFTISTVQAEDLAVYFCQQDYSSPWTFGGGTKLEIKR
1.43 relative to F1232-37-2 = 1 | F1245-5-1 (antibody, V domains shown, mouse hybridoma monoclonal antibody) VH: QVQLQQPGAELVKPGASVKLSCKASGYTFISYWMHWVKQRPGQGLEWIGMIHPNSGSTHYNEKFKSKATLTVDKSSSTAYMQLSSLTSEDSAVYYCARGGVTPVAYWGQGTLVTVSA VL: SIVMTQTPKFLLVSAGDRVTITCKASQSVSNDVAWYQQKPGQSPKLLIYYASNRYTGVPDRFTGSGYGTDFTFTISTVQAEDLAVYFCQQDYSSPWTFGGGTKLEIKR
0.00285 relative to F1232-37-2 = 1 | F1249-5-1 (antibody, V domains shown, mouse hybridoma monoclonal antibody) VH: QVQLQQPGAELVKPGASVKLSCKASGYTFTSYWMHWLKQRPGQGLEWIGMIHPNSDITNYNEKFKNKATLTVAKSSSTAYMQLSSLTSEDSAVYYCARLGDYYAMDYWGQGTSVTVSS VL: SIVMTQTPKFLLVSAGDRVTITCKASQSVSNDVTWYQQKPGQSPKLLIYYASNRYTGVPDRFTGSGYGTDFTFTISTVQAEDLAVYFCQQDYSSPPTFGGGTKLEIKR
2.06 relative to F1232-37-2 = 1 | F1249-22-1 (antibody, V domains shown, mouse hybridoma monoclonal antibody) VH: QVQLQQPGAELVKPGASVKLSCKASGYTFTSYWMQWVKERPGQGLEWIGEIDPSDSYTNYNQKFKGKATLTVDTSSSTACMQLSSLTSEDSAVYYCARGAITTATLDYWGQGTTLTVSS VL: not shown
7.9 relative to F1232-37-2 = 1 | F1251-1-1 (antibody, V domains shown, rat hybridoma monoclonal antibody) VH: QVNLLQSGAALVKPGASVKLSCKASGYTFTDYYIHWVKQSHGKSLEWIGYINPNSGYTNYNEKFKSKATLTVDKSTNTAYMELSRLTSEDSATYYCTRCNSGYGDWFAYWGQGTLLTVSS VL: DIQMTQSPPVLSASVGDRVTLSCKASQNINKNLDWYQQKHGEAPKLLIYYTNNLQTDIPSRFSGSGSGTDYTLTISSLQPEDVATFYCYQYNSGPGTFGAGTKLELKR
0.00293 relative to F1232-37-2 = 1 | F1245-7-1 (antibody, V domains shown, mouse hybridoma monoclonal antibody) VH: QVQLQQPGAELVKPGASVKLSCKASGYTFTSYWMHWVKQRPGQGLEWIGMIHPNSGSTNYNEKFKSKATLTVDKSSSTAYMQLSSLTSEDSAVYYCASPVTAVVEYYFDYWGQGTTLTVSS VL: SIVMTQTPKFLLVSAGDRVTITCKASQSVSNDVAWYQQKPGQSPKLLIYYASNRYTGVPDRFTGSGYGTDFTFTISTVQAEDLAVYFCQQDYSSLTFGSGTKLEIKR

The binders below were run against T1, human GPVI extracellular region-human … (assay: SPR BIACORE 3000, hGPVI-hFc on CM5 chip, 0-800 nM, 1:1 binding fit).
Protocol: (§1) Dissociation constant for F1232-37-2 (whole antibody) prepared in EXAMPLE 2, and F(ab′)2 and Fab prepared in 22-1 and 21-2 was measured with Protein Interaction Analyzer BIACORE® 3000 (BIACORE). That is, hGPVI-hFc prepared in EXAMPLE 1 was coupled to sensorchip CM5 (BIACORE) according to the manual. Then a series of dilution from 0 to 800 nM of each antibody was prepared with HBS-EP buffer (BIACORE) and analyzed with BIACORE® 3000. After completion of antibody binding, chip was regenerated with glycine buffer (pH 1.5) (BIACORE). Regarding the results of whole antibody and F(ab′)₂, evaluation software Bivalent analyte (BIACORE) was used for analysis; 1:1 Binding for Fab analysis. Then the dissociation constant was calculated. As a result, dissociation constant of F1232-37-2 F(ab′)2 and Fab was about 0.7 and 0.6, respectively, when that of whole antibody defined as one.

dissociation constant relative to whole antibody | Binder
~0.6 relative to whole F1232-37-2 = 1 | F1232-37-2 Fab (Fab, V domains shown, Fab made from the mouse antibody with papain) VH: VQLQQSGPELVRPGESVKISCKGSGYTFTDYAIHWVKLSHAKSLEWIGVISIYYDDTNYNQKFKGKATMTVDKSSSTAYLELARLTSEDSAIYYCARRRDSSGPYAMDYWGQGTSVTVSS VL: DIVLTQSPASLAVSLGQRATISCRASESVDSYGNSFMHWYQQKPGQPPKLLIYRASNLESGIPARFSGSGSRTDFTLTINPVEADDVATYYCQQSNEDPYTFGGGTKLEIKR

Each binder was assayed against T1, human GPVI extracellular region-human … (assay: binding to antigen of co-expressed chains; antigen construct not named).

binding result | Binder
binds | humanized F1232-37-2: Eu-HC with REI-KA (antibody, human IgG4, V domains shown, human IgG4 heavy and kappa light constant regions) VH: QVQLVQSGAEVKKPGSSVKVSCKASGGTFSDYAIHWVRQAPGQGLEWIGVISIYYDDTNYNQKFKGKATITADESTNTAYMELSSLRSEDTAIYYCARRRDSSGPYAMDYWGQGTLVTVSS VL: DIQMTQSPSSLSASVGDRVTITCRASESVDSYGNSFMHWYQQKPGKAPKLLIYRASNLESGVPSRFSGSGSGTDFTFTISSLQPEDIATYYCQQSNEDPYTFGQGTKVEIKR
binds | humanized F1232-37-2: Eu-HC with Eu-KA (antibody, human IgG4, V domains shown, human IgG4 heavy and kappa light constant regions) VH: QVQLVQSGAEVKKPGSSVKVSCKASGGTFSDYAIHWVRQAPGQGLEWIGVISIYYDDTNYNQKFKGKATITADESTNTAYMELSSLRSEDTAIYYCARRRDSSGPYAMDYWGQGTLVTVSS VL: DIQMTQSPSTLSASVGDRVTITCRASESVDSYGNSFMHWYQQKPGKAPKLLMYRASNLESGVPSRFIGSGSGTEFTLTISSLQPDDFATYYCQQSNEDPYTFGQGTKVEVKR

The binders below were run against T1, human GPVI extracellular region-human … (assay: SPR BIACORE 3000, hGPVI-hFc on CM5 chip, 0-800 nM, bivalent analyte fit).
Protocol: as §1

dissociation constant relative to whole antibody | Binder
~0.7 relative to whole F1232-37-2 = 1 | F1232-37-2 F(ab')2 (other, F(ab')2 made from the mouse antibody with lysyl endopeptidase) VH: VQLQQSGPELVRPGESVKISCKGSGYTFTDYAIHWVKLSHAKSLEWIGVISIYYDDTNYNQKFKGKATMTVDKSSSTAYLELARLTSEDSAIYYCARRRDSSGPYAMDYWGQGTSVTVSS VL: DIVLTQSPASLAVSLGQRATISCRASESVDSYGNSFMHWYQQKPGQPPKLLIYRASNLESGIPARFSGSGSRTDFTLTINPVEADDVATYYCQQSNEDPYTFGGGTKLEIKRADAA
